Reference: patent publication US20240390512A1 (Daiichi Sankyo, published 2024)
Numbering of substitutions follows the chain as printed.

T1: cynomolgus monkey CDH6, on cells (cynomolgus monkey, UniProt P55285 54-790 (human entry))
T1 construct: Expressed from pcDNA3.1-cynoCDH6; also called cynoCDH6
T1 sequence: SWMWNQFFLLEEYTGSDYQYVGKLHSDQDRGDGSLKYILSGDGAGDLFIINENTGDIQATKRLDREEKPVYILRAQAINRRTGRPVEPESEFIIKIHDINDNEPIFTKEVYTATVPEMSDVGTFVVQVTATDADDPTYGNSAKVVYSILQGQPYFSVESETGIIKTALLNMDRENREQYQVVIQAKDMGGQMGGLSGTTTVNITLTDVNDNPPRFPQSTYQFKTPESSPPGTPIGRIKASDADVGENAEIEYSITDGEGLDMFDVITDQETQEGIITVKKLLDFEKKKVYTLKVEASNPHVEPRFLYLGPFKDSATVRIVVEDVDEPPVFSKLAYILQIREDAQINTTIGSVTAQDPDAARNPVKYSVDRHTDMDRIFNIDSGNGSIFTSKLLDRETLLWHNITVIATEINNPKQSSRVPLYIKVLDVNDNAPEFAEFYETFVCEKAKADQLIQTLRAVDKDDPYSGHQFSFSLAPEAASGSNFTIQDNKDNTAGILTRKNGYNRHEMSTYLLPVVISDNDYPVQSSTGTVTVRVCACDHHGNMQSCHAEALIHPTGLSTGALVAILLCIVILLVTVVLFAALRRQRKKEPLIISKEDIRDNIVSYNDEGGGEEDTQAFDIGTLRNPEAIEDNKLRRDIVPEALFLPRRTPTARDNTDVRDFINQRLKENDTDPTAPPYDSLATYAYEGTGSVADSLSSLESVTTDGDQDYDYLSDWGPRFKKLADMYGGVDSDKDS

T2: human CDH6 (cadherin-6), full-length, on cells (human, UniProt P55285 54-790)
T2 construct: also called hCDH6; full-length hCDH6
T2 sequence: T1 sequence with H300Y, R457H, G707A

T3: EC3 deletion mutant of human CDH6, on cells (human, UniProt P55285 54-790)
T3 construct: in p3×FLAG-CMV-9; also called EC3-deleted hCDH6
T3 sequence: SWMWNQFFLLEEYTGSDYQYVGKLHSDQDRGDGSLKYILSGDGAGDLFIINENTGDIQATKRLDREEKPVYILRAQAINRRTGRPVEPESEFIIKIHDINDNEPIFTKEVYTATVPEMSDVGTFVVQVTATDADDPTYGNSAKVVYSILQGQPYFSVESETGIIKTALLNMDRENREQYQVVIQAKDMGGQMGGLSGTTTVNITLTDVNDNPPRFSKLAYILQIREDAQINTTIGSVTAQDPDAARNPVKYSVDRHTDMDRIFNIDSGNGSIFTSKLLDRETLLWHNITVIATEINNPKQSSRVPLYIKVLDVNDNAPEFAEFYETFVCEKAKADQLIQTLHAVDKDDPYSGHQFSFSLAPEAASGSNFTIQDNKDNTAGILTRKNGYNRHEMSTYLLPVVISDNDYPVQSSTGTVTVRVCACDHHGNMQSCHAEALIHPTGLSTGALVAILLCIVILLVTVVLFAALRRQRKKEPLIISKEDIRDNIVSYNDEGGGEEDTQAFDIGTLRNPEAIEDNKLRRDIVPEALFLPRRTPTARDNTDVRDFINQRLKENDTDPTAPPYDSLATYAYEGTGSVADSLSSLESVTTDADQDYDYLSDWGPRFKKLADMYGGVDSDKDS

B1: rat anti-human CDH6 monoclonal antibody rG055 (antibody, rat IgG2b, V domains shown)
VH: EVQLQESGPGLVRPSQSLSLSCSVTDYSITSNYWGWIRRFPGNKMEWMGYITYSGYTSYNPSLQSRISITRDTSKNQFFLQLNSVTAEDTATYYCARSINHGGYSYVVDAWGPGASVTVSS
VL: DVQMTHSPSYLAASPGESVSISCKTSKNISNYLVWYQQKPGEAYKLLIYSGSTLQSGTPSRFSGSGSGTDFTLTIRSLEPEDFGLYFCQQYYEKPFTFGSGTKLEIKR
notes: Purified from hybridoma supernatant; also called rG055 antibody
B2: rat anti-human CDH6 monoclonal antibody rG061 (antibody, rat IgG2b, V domains shown)
VH: EVQLQESGPGLVKPSQSLSLTCSVTGYSITTYYWGWIRKFPGNKMEWMGYISYSGRTSYNPSLKSRMSITRDASKNQFFLQLNSVTTDDTATYYCARSPINHGGYWYFDFWGPGTMVTVSS
VL: B1 VL with H6Q, T25A, S26T, N28S, V34A, L46V, F87S, F96L
notes: Purified from hybridoma supernatant; also called rG061 antibody
B3: rat anti-human CDH6 monoclonal antibody rG056 (antibody, rat IgG2b, V domains shown)
VH: EVQLQESGPGLVKPSQSLSLTCSVTDYSITTYFWGWIRKFPGNKMEWMGYMSYRGGTSYNPSLKSRISITRDTSKNQFFLQLNSVTTEDTATYYCARCPNYGGHSLVFDYWGQGVMVTVSS
VL: DVQMTQSPSSLAASPGESVSISCRATKSIGIYLAWYQQKPGKTFKLLIYSGSTLQSGTPSRFSGSGSGTDFTLTIRSLEPEDFGLYFCQQFYENPFTFGSGTKLEIRR
notes: Purified from hybridoma supernatant; also called rG056 antibody
B4: rat anti-human CDH6 monoclonal antibody rG019 (antibody, rat IgG2b, V domains shown)
VH: QVQLQQSGAELVKPGSSVKISCKASGYTFTRNFMHWIKQQPGNGLEWIGWIYCGDGETEYNQKFNGKATLTADRSSSTAYMELSRLTSEDSAVYFCARGVYGGFAGGYFDFWGQGVMVTVSS
VL: DIQMTQSPSLLSASVGDRVTLNCKASQNIYKNLAWYQQKLGEGPKLLIYDANTLQTGIPSRFSGSGSGSDFTLTISSLQPEDVATYFCQQYYSGWAFGGVTNLELKRA
notes: Purified from hybridoma supernatant; also called rG019 antibody

What follows are binders tested against T1, cynomolgus monkey CDH6, on cells (assay: Cell-ELISA and flow cytometry screening with hybridoma supernatants on transfected cells).

| binding result | Binder |
| --- | --- |
| binds | B1 |
| binds | B2 |
| binds | B3 |
| binds | B4 |

These binders were tested against T2, human CDH6 (cadherin-6), full-length, … (assay: flow cytometry; hCDH6-transfected 293T cells (open line) against untransfected 293T cells (shaded); antibody 10 ng/mL; anti-rat IgG-FITC).

| binding result | Binder |
| --- | --- |
| binds | B1 |
| binds | B2 |
| binds | B3 |
| binds | B4 |

The binders below were run against T3, EC3 deletion mutant of human CDH6, on … (assay: flow cytometry; 293α cells transfected with EC3-deleted hCDH6 (open line) against untransfected 293α cells (shaded); anti-rat IgG-FITC).

| binding result | Binder |
| --- | --- |
| no binding (tested: 20 nM) | B1 |
| no binding (tested: 20 nM) | B2 |
| no binding (tested: 20 nM) | B3 |
| no binding (tested: 20 nM) | B4 |
